Laboratory results taken from the nanobody polyreactivity screen of Harvey et al. (2022).

Assay: yeast display, Sf9 membrane polyspecificity reagent, FACS + sequencing; frameworks hold sequencing errors
Procedure, shortened: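 Nanobodies came from a synthetic yeast display library in Saccharomyces cerevisiae BJ5465, induced with galactose for 36–48 hours and stained for 1 hour at 4 °C with 10% biotinylated, detergent-solubilized Sf9 membrane reagent. Cells were enriched on streptavidin microbeads and then FACS-sorted, with low and high (top ~1%) gates set on anti-HA fluorescence for expression and streptavidin fluorescence for reagent binding. Each polyreactivity label reflects the gate a clone came from. Genes were amplified by colony PCR, sequenced by MiSeq 2 × 250 and filtered by CDR length.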

Sequence | polyreactivity (PSR sort gate)
QVQLVESGGGLVQAGGSLRLSCAASGFTFYGYAMGWYRQAPGKERELVAAISTRGSRTYYADSVKGRFTISRDNSKNTVYLQMNSLKPEDTAVYYCAARKKHSGYGRGNYWGQGTQVTVSS | high polyreactivity
QVQLVESGGGLVQAGGSLRLSCAASGFTFYGYAMGWYRQAPGKERELVAGITSSGGSTHYADSVKGRFTISRDNAKNTVYLQMNSLKPEDTAVYYCAKVWSFPSNYRAYYYWGQGTQVTVSS | high polyreactivity
QVQLVESGGGLVQAGGSLRLSCAASGFTFYGYAMGWYRQAPGKERELVATIRRSTGSTYYADSVKGRFTISRDNAKNTVYLQMNSLKPEDTAVYYCATRVWFPITSYDYWGQGTQVTVSS | low polyreactivity
QVQLVESGGGLVQAGGSLRLSCAASGFTFYGYTMGWYRQAPGKEREVVAAITSDGDTNYADSVKGRFTISRDNAKNNVYLQMNSLIPEDTAVYYCNADPGFFFYWWTGDYWGQGTQVTVSS | low polyreactivity
QVQLVESGGGLVQAGGSLRLSCAASGFTFYHYAMGWYRQAPGKERELVAAISRSGGSTYYADSVKGRFTISRDNAKNTVYLQMNSLKPEDTAVYYCSKVLRAKNSFDYWGQGTQVTVSS | high polyreactivity
QVQLVESGGGLVQAGGSLRLSCAASGFTFYINAMGWYRQAPGKEREFVAAITSRGGSTYYADSVKGRFTISRDNAKNTVYLQMNSLKPEDTAVYYCAARNFLSRRGTYDYWGQGTQVTVSS | high polyreactivity
QVQLVESGGGLVQAGGSLRLSCAASGFTFYINVMGWYRQATGKERELVAAITSSGTTNYADSVKGRFTISRDNAKNTVYLQMNSLKPEDTAVYYCAKRSYGGTLHYAFDSWGQGTQVTVSS | low polyreactivity
QVQLVESGGGLVQAGGSLRLSCAASGFTFYIYAMGWDRQAPGKERELVAAIRASGGSTYYADSVKGRFTISRDSAKNTVYFLMNSLNPDDTAVYYCAADYKVYASWYYAYTFYYWGQGTQVTVSS | low polyreactivity
QVQLVESGGGLVQAGGSLRLSCAASGFTFYIYAMGWSRQAPGKERELVAAISSSGGSTYYADSVKGRFTISRDNAKNTVYLQMNSLNPEDTAVYYWNVVRYPVYRTRYYYWGQGTQVTVSS | high polyreactivity
QVQLVESGGGLVQAGGSLRLSCAASGFTFYKNAMGWYRQAPGKERELVASISSGGSTKYADSVKGRFTISRDNAKNTVYLQMNSLKPEDTAVYYCAADSGRNRMYYWGQGTQVTVSS | high polyreactivity
QVQLVESGGGLVQAGGSLRLSCAASGFTFYKNTMGWYRQAPGKERELVAAISGSGGRTYYADSVKGRFTISRDNAKNTVYLQMTSLKPEDTAVYYCNAAARYRWQYVYSLYEYGHWGQGTQVTVSS | high polyreactivity
QVQLVESGGGLVQAGGSLRLSCAASGFTFYKYAIGWYRQAPGKERELVAGIRRGGTNYADSVKGRFTISRDNAKNTVFLQMNSLKPEDTAVYYCAADVRPYYSAYRGRYYYWGQGTQVTVSS | high polyreactivity
QVQLVESGGGLVQAGGSLRLSCAASGFTFYLNAMGWYRQAPGKERELVAAISYSDGSPYYADSVKGRFTISRDNAKNTVYLQRNSLKPEDTAVYYCAADTTDPGGAYQLMDYWRQGTQVTVSS | low polyreactivity
QVQLVESGGGLVQAGGSLRLSCAASGFTFYLYAMGWYRQAPGKERELVAAISSGGSTNYADSVKGRFTISRDNAKNTVYLQMNSLKPEDTAVYYCNKRYRRATWWITAYDHWGQGTQVTVSS | high polyreactivity
QVQLVESGGGLVQAGGSLRLSCAASGFTFYLYTMAWYRQAPGKERELVATITSDGGTNYADSVKGRFTISRDNAKNTVYLQMNSLKPEDTAVYYCARTARRRYQPYEYWGQGTQVTVSS | low polyreactivity
QVQLVESGGGLVQAGGSLRLSCAASGFTFYLYTMGWYRQAPGKERELVASLTGSGGSTYYADSVKGRFTISRDNAKNTVYLQMHSLKPEDTAVYYCNARYYVYSATVDRYYHFYYWGQGTQVTVSS | high polyreactivity
QVQLVESGGGLVQAGGSLRLSCAASGFTFYNYAMGWYRQAPGKERELVAAITSRGGSTYYADSVKGRFTISRDYAKNTVYLQMNSLKPEDTAVYYCNAVAKLYYWRYDYWGQGTQVTVSS | low polyreactivity
QVQLVESGGGLVQAGGSLRLSCAASGFTFYNYAMGWYRQAPGKERELVAVISRSGGRTKYADSVKGRFTISRDNAKNTVYLQMNSLKPEDTAVYYCAARPSPGYYAYRYAPAIHYDYWGQGTQVTVSS | high polyreactivity
QVQLVESGGGLVQAGGSLRLSCAASGFTFYPNAMGWYRQAPGKEWELVAAISRSGSSTYYADSVKGRFTISRDNAKNTVYLQMNSVKPEDTAVYDCNRYGRQYDFYYWGQGTQVTVSS | high polyreactivity
QVQLVESGGGLVQAGGSLRLSCAASGFTFYPYAMGWYRQAPGKERELVAIRSDGSTYYADSVKGRFTISRDNAKNTVYLQMNCLKPEDTAVYYCNTEPSRDSYSLYFQTRGDYWGQGTQVTVSS | low polyreactivity
QVQLVESGGGLVQAGGSLRLSCAASGFTFYPYSMGWYRQAPGKERELVAAITRGGSTYYADSVKGRFTISRDNAKNTVFLQMNSLKPEDTAVYYCNAYWQGYGYYYWGQGTQVTVSS | low polyreactivity
QVQLVESGGGLVQAGGSLRLSCAASGFTFYPYTMGWYRQAPGKEREFVAAISWNCGSTYYADSVKGRFTISCDNAKNTVYLQMNSLKPEDTAVYYCAKRSYRSSARELDYWGQGTQVTVSS | low polyreactivity

Sequence | polyreactivity (PSR sort gate)
QVQLVESGGGLVQAGGSLRLSCAASGFTFYQYGMGWYRQAPGKERELVATITSGGRTNYADSVKGRFTISRDNAKNTVYLQMNSLKPEDTAVYYCNKLPYYPRFGRIGRYYYWGQGTQVTVSS | high polyreactivity
QVQLVESGGGLVQAGGSLRLSCAASGFTFYRNAMGWYRQAPGKERELVAAITLSGTSTYYADSVMGRFTISRDNAKNTVYLQMISLIPEDTAVYYWNTVGYRGPSNSRFYYWGQGTQVTLSS | high polyreactivity
QVQLVESGGGLVQAGGSLRLSCAASGFTFYRNAMGWYRQAPGKEREMVAAITWSGTSTYYADSVKGRFTISRDNAKNTVYFQMNSLKPEDTAVYFCNTVGYRGRSNSRFYYWGQGTQVTVSS | high polyreactivity
QVQLVESGGGLVQAGGSLRLSCAASGFTFYRNAMGWYRQAPWKERELVATITRSGGSKYYADSVKGRFTISRDNAKNTVYLQMNSLKPEDTEVYYCNDAISGVLVHGNYWGQGTQVTVSS | low polyreactivity
QVQLVESGGGLVQAGGSLRLSCAASGFTFYRNAMRWYRQAPGKERELVAAISRGGRTYYADSVKGRFTISRDNAKNTVYLQMNSLKPEDTAVYYCARKYTRKIPASDYWGQGTQVTVSS | high polyreactivity
QVQLVESGGGLVQAGGSLRLSCAASGFTFYRNDMGWYRQAPGKEREFVAAITTSGGSTYYADSVKGRFTISRDNAKYTVYLQMNSLKPEDTAVYYCNAYGDGYWKTFGYWGQGTQVTVSS | high polyreactivity
QVQLVESGGGLVQAGGSLRLSCAASGFTFYRYAMGSYRQAPGKERELFAAIRKSGGSTYYADSVKGRFTISRDNAKNTVYLLMNSMKAEDTAVYYCAKRYATDGFGYWGQGTQVTVSS | high polyreactivity
QVQLVESGGGLVQAGGSLRLSCAASGFTFYRYAMGWYRPAPGKERELVAAISSTGDRTYYADSVKGRFTISRDNAKNTVYLQMNSLKPEDTAVYYCAAPYQNQVEFNYWGQGTQVTVSS | high polyreactivity
QVQLVESGGGLVQAGGSLRLSCAASGFTFYRYAMGWYRPAPGKERELVAAITRSGSRTYYADSVKGRFTISRDNAKNTVYLQMNSLKPEDTAVYYCNTDGGDHPTARYGYWGQGTQVTVSS | high polyreactivity
QVQLVESGGGLVQAGGSLRLSCAASGFTFYRYAMGWYRQAPGKERELVAAISRTGGSTYYADSVKGRFTISRDNAKNTVYLQMNSLKPEDTAVYYCAAERKARTSWYGAASRYYYWGQGTQVTVSS | high polyreactivity
QVQLVESGGGLVQAGGSLRLSCAASGFTFYRYTMGWYRQAPGKERELVAAITNTDSTNYADSVKGRFTISRDNAKNTVYLQMNSLKPEDTAVYYCNAAYVWYRIFVRRDYWGQGTQVTVSS | high polyreactivity
QVQLVESGGGLVQAGGSLRLSCAASGFTFYSNAMGWYRQAPGKERELGAAITWSTGNTYYADSVKGRFTISRDNAKNTVYLQMNSLKPEDTAVYYCAARSHTGYYPPSYYWGQATQVTVSS | high polyreactivity
QVQLVESGGGLVQAGGSLRLSCAASGFTFYTNAMGLSRQAPGKERELVAAISQRGASTYYADSVKGRFTISRDNAKNTFYLEMTSLKPEDTAVYYCAASSRTHGSYYYWGQGTQVTVSS | high polyreactivity
QVQLVESGGGLVQAGGSLRLSCAASGFTFYTNAMGWYRQAPGKEREFVAAISWSGTGTYYADSVKGRFTISRDNAKNTVYLQMNSLKPEDTAVYYCAARDRWRGGRKFDYWGQGTQVTVSS | high polyreactivity
QVQLVESGGGLVQAGGSLRLSCAASGFTFYTYAMGWYRQAPGKERELVAAINQRGGRTYYADSVKGRFTISRDNAKNTVYLQMNSLKPEDTAVYYCAKSPPPKTRYDYWGQGTQVTVSS | high polyreactivity
QVQLVESGGGLVQAGGSLRLSCAASGFTFYTYVRGWYRQAPGKERELVAAITSGVSTNYADSVKGRFTISRDNAKNTVYLQMNSLKPEDTAVYYCNKDVRPAYRWYDYWGQDTQVTVSS | low polyreactivity
QVQLVESGGGLVQAGGSLRLSCAASGFTFYWYAMGWYRKAPGKERELVAAISSSGGRTYYADSVKGRFTISRDNAKNTVYLQMNSLKPEDTAVYYCAAAHTREYYWGQGTQVTVSS | high polyreactivity
QVQLVESGGGLVQAGGSLRLSCAASGFTFYWYAMGWYRQAPGKERELVAAITIGGSTYYADSVKGRFTISRDNAKNTVYLQMNSLKPEDTAVYYCNVYGYGTEYDYWGQGTQVTVSS | high polyreactivity
QVQLVESGGGLVQAGGSLRLSCAASGFTFYYNAMGWYRQAPGKERELVAVISSSGSRTYYADSVKGRFTISRYNAKNTVYLQMNSLKPEDTAVYYCAAARIGTRDYWGQGTQVSVSS | high polyreactivity
QVQLVESGGGLVQAGGSLRLSCAASGFTFYYNDMGWYRQAPGKERELVATITNS | low polyreactivity
QVQLVESGGGLVQAGGSLRLSCAASGFTFYYYAMGWYRQAPGKERELVAAINRSGGSTYYADSVKGRFTISRDNAKNTVYLQMNSLKPEDTAVYYCNKRLLVSRSSAQPYGYWGQGTQVTVSS | high polyreactivity
